Measurements as given in IntAct's records for PubMed 20562859.

What was measured:
daaf4_human DNAAF4 = target: T1, daaf4_human DNAAF4 (UniProt Q8WXU2)
T1 sequence: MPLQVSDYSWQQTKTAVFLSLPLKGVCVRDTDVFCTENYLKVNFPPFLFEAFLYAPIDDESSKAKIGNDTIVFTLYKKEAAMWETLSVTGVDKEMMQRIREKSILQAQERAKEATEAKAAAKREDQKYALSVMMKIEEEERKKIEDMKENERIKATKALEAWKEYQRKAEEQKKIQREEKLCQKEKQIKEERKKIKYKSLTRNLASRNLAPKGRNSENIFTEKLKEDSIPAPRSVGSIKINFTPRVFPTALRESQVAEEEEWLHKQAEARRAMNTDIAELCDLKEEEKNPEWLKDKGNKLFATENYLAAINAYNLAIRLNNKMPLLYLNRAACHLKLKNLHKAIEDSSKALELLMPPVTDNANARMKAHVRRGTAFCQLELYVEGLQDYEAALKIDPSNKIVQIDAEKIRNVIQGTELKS

atg13_human ATG13 = target: T2, atg13_human ATG13 (UniProt O75143)
T2 sequence: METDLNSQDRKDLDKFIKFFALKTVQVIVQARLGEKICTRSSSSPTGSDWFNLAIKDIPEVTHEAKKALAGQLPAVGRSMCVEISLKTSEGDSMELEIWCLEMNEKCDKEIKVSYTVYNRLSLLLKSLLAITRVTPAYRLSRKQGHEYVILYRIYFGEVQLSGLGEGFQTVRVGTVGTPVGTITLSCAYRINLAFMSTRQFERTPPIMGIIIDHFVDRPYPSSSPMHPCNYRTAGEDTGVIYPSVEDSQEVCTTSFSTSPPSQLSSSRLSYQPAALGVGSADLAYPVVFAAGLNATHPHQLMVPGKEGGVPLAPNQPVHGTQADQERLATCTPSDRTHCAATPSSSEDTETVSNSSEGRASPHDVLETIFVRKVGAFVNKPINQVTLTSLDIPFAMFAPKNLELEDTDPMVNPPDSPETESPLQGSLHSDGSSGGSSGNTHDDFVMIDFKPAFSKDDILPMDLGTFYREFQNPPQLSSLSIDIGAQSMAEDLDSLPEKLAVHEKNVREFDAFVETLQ

fan_human NSMAF = fan_human NSMAF (UniProt Q92636)
stk4_human STK4 = target: T3, stk4_human STK4 (UniProt Q13043)
T3 sequence: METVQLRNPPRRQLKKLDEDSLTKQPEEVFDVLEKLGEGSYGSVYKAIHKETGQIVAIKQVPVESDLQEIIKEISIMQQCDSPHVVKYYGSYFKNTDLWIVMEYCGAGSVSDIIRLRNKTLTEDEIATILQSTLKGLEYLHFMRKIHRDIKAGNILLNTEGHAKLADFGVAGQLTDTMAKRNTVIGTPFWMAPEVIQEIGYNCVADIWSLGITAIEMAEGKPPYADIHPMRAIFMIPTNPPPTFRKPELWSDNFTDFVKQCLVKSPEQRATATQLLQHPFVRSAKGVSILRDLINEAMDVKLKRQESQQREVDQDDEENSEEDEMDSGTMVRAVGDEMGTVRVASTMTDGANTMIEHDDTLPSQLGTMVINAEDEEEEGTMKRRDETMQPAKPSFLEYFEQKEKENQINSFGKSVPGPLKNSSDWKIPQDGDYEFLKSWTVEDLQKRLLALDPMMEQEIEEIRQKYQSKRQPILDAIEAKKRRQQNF

Sequence of fan_human NSMAF (Q92636 whole entry): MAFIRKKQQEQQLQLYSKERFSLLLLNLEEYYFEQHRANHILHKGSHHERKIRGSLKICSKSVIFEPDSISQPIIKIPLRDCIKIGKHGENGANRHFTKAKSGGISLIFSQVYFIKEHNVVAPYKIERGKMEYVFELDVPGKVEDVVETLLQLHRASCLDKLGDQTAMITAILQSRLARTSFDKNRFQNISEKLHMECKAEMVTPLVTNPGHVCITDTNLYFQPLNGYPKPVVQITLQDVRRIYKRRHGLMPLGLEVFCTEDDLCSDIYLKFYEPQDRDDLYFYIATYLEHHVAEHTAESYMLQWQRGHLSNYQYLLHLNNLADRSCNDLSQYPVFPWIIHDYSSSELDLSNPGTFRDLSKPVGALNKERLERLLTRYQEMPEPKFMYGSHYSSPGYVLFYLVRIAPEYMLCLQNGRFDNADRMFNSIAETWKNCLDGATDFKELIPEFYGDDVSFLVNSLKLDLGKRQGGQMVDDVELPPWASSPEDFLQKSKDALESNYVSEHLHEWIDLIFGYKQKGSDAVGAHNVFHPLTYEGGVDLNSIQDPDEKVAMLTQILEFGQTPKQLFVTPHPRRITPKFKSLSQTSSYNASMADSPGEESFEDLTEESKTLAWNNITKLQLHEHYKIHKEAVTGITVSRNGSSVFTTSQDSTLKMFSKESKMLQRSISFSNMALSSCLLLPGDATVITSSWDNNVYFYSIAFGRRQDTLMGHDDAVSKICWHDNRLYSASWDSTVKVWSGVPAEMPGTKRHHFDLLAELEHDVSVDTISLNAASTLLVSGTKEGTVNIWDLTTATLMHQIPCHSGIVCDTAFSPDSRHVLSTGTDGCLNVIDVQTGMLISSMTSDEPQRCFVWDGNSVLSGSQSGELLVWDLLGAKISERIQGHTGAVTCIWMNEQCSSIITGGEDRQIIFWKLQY

- effect of a mutation on the interaction (daaf4_human DNAAF4): decreasing interaction
- effect of a mutation on the interaction (atg13_human ATG13): decreasing interaction
- effect of a mutation on the interaction (fan_human NSMAF): disrupting interaction
- effect of a mutation on the interaction (stk4_human STK4): disrupting interaction
Substance: Microtubule-associated protein 1 light chain 3 beta (Homo sapiens) (from UniProt Q9GZQ8) R69A
